Key:
[1] = target: Human Galectin-3 protein (Acro Biosystems, GA3-H5129) (human) (UniProt P17931); assay: ELISA, hGal3 coated, competitor hTIM3 (FIG. 24)
[2] = target: Human Galectin-3 protein (Acro Biosystems, GA3-H5129) (human) (UniProt P17931); assay: ELISA, hGal3 coated, antibody 3 ug/mL, competitor hTIM3
[3] = target: Human Galectin-3 protein (Acro Biosystems, GA3-H5129) (human) (UniProt P17931); assay: SPR Biacore T200, antibody captured, Galectin-3 analyte

Human Galectin-3 protein (Acro Biosystems, GA3-H5129) (human), sequence (P17931 2-250): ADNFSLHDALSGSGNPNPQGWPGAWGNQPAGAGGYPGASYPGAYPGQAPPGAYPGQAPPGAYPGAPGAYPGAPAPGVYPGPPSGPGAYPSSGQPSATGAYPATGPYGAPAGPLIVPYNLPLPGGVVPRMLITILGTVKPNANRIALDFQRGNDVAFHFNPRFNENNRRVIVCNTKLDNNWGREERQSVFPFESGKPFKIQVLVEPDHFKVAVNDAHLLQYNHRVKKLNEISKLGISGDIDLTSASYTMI

reduction of TIM3-GAL3 binding [1]: < 25% | GAL3-TIM3 Blocking @ 3 ug/mL [2]: 6% | Kd [3]: 18.4 nM
B1: 9H2.2H1 (antibody, from a related filing, V domains shown)
VH: QVQLQQPGAELVGPGSSVKLSCKASGYTFTNYWIHWVKQRPLQGLEWIGNIDPSDSETHYNQKFKDKATLTVDKSSSTAYMQLSSLTSEDSAVYYCARHGYYDYWGQGTTLTVSS
VL: DIVMTQSHKFMSTSVGDRVSITCKASQDVSTAVAWYQQKPGQSPKLLIYWASTRHTGVPDRFTGSGSGTDYTLTISSVQAEDLALYYCQQHYTTPLTFGAGTKLELKR
